“Also recorded” adds a separate entry of the source.
Tests used:
[1] = tested on: Mhyo membrane-induced [Ca2+]i increase in ciliated tracheal cells; experiment: Protease pretreatment of Mhyo membrane, effect on membrane-induced [Ca2+]i increase; format: cell-based, porcine; conditions: pretreatment of the membrane for 8 hours, 37° C.
Protocol: FIG. 6 contains four graphs plotting [Ca^2+]i response in ciliated porcine tracheal cells inoculated with Mhyo membranes. Each trace indicates the [Ca^2+]i changes in each tracheal cell. The arrows indicate when administration occurred. (A) The membrane preparation (100 μg/mL) increased [Ca^2+]i. (B) Digestion with proteinase K blocked the membrane-induced increase in [Ca^2+]i. The membrane (100 μg/0.1 mL PBS) was incubated with proteinase K (2 μg) at 37° C. for 8 hours before it was applied to tracheal cells in 0.9 mL Krebs-Ringer bicarbonate (KRB) buffer. (C) Digestion with trypsin potentiated the membrane-induced increase in [Ca^2+]i. The membrane (100 μg/0.1 mL PBS) was incubated with trypsin (6 μg) at 37° C. for 30 minutes before it was applied to tracheal cells in 0.9 mL KRB. […] The soluble protein was prepared by subjecting the trypsinized membrane to ultracentrifigation (100,000× g, 60 minutes) to obtain the supernatant.
Mycoplasmas lack cell walls and have only one type of membrane, the plasma membrane (Razin S. (1993) Mycoplasma membranes as models in membrane research (Chapter 2), In: Subcellular Biochemistry. Vol 20: Mycoplasma Cell Membranes, edited by Rottem S, Kahane I. Plenum Press, New York. pp. 1-28). The Mhyo membrane was prepared by osmotic lysis of the organisms and tested to determine if it increased [Ca^2+]i in ciliated tracheal cells. […]

[2] = tested on: trypsin-induced [Ca2+]i increase in swine ciliated epithelia; experiment: Soybean trypsin inhibitor on trypsin-induced [Ca2+]i increase; format: cell-based; conditions: inhibitor 10 U/mL; trypsin 10 U/mL
From the text: (§1) According to a recent report, trypsin at 0.1 U/mL can increase [Ca^2+]i in guinea pig tracheal epithelia (Oshiro et al., Life Sci., 71:547-558 (2002)). Since the estimated trypsin concentration in the [Ca^2+]i experiments described herein is about 1 U/mL, we tested whether trypsin plays a role in the observed tryptic fragment-induced [Ca^2+]i increase.

[3] = tested on: tryptic Mhyo polypeptide fragment-induced [Ca2+]i increase in ciliated tracheal epithelia; experiment: Soybean trypsin inhibitor on tryptic Mhyo polypeptide fragment-induced [Ca2+]i increase; format: cell-based, swine; conditions: inhibitor 10 U/mL, incubated with preparation 37° C. 10 minutes
Protocol: FIG. 14 is a graph plotting [Ca^2+]i increase in porcine ciliated tracheal cells incubated with tryptic Mhyo membrane preparation pretreated with a soybean trypsin inhibitor (TI). […] TI was incubated with the tryptic membrane preparation at 37° C. for 10 minutes prior to administration. […] Each trace depicts [Ca^2+]i changes in one cell.
as §1

Row | Molecule | effect of protease pretreatment on membrane-induced [Ca2+]i increase [1] | effect on trypsin-induced [Ca2+]i increase [2] | effect on tryptic Mhyo polypeptide fragment-induced [Ca2+]i increase [3] | effect on tryptic Mhyo polypeptide fragment-induced [Ca2+]i increase ([3]; listed as TI)
1 | papain: proteolytic enzyme used to pretreat the membrane (protein, UniProt P00784 134-345, looked up) Papain: IPEYVDWRQKGAVTPVKNQGSCGSCWAFSAVVTIEGIIKIRTGNLNEYSEQELLDCDRRSYGCNGGYPWSALQLVAQYGIHYRNTYPYEGVQRYCRSREKGPYAAKTDGVRQVQPYNEGALLYSIANQPVSVVLEAAGKDFQLYRGGIFVGPCGNKVDHAVAAVGYGPNYILIKNSWGTGWGENGYIRIKRGTGNSYGVCGLYTSSFYPVKN | abolished |  |  | 
2 | soybean trypsin inhibitor: soybean trypsin inhibitor (protein, UniProt P01070 25-205, looked up) Trypsin inhibitor A: DFVLDNEGNPLENGGTYYILSDITAFGGIRAAPTGNERCPLTVVQSRNELDKGIGTIISSPYRIRFIAEGHPLSLKFDSFAVIMLCVGIPTEWSVVEDLPEGPAVKIGENKDAMDGWFRLERVSDDEFNNYKLVFCPQQAEDDKCGDIGISIDHDDGTRRLVVSKNKPLVVQFQKLDKESL |  | inhibited | failed to block | failed to inhibit
3 | proteinase K: proteolytic enzyme used to pretreat the membrane (protein, UniProt P06873 106-384, looked up) Proteinase K: AAQTNAPWGLARISSTSPGTSTYYYDESAGQGSCVYVIDTGIEASHPEFEGRAQMVKTYYYSSRDGNGHGTHCAGTVGSRTYGVAKKTQLFGVKVLDDNGSGQYSTIIAGMDFVASDKNNRNCPKGVVASLSLGGGYSSSVNSAAARLQSSGVMVAVAAGNNNADARNYSPASEPSVCTVGASDRYDRRSSFSNYGSVLDIFGPGTSILSTWIGGSTRSISGTSMATPHVAGLAAYLMTLGKTTAASACRYIADTANKGDLSNIPFGTVNLLAYNNYQA | blocked; also recorded: abolished |  |  | 

Source: patent US20050287163A1, “Mycoplasma polypeptides” (priority 2002, published 2005)
